Data reported in patent US20200190209A1 (BLACK BELT THERAPEUTICS, published 2020).
Values joined by “and” are separate entries in the source; they are usually repeats but may differ in a detail not shown here. Equal values may be shown once.

Assays:
[1] = target: T1, human CD38 (full length, on cells) (human, UniProt P28907 1-300); experiment: flow cytometry, binding to Daudi cells
T1 construct: Endogenous on Daudi, Raji, Jurkat cells, human PBMC/T cells; full-length CD38 expressed in HEK-293T cells for alanine scanning; also called Uniprot P28907

[2] = target: T2, recombinant human CD38 his tagged (extracellular domain) (human, UniProt P28907 43-300); experiment: summary, human CD38 extracellular protein
T2 construct: also called rhCD38; rhCD38-his; not shown: Histidine tag

[3] = target: T1, human CD38 (full length, on cells); experiment: cell-based or functional assay
[4] = target: T2, recombinant human CD38 his tagged …; experiment: Octet BLI affinity, rhCD38; Octet value of Table 5 (variant comparison); Table 1A gives 3.38E-09 for IgG1
[5] = target: T2, recombinant human CD38 his tagged …; experiment: SPR Biacore affinity, rhCD38-his
Protocol: (§1) Anti-human antibody was initially immobilised across all flow cells in analysis buffer (pH 7.4, 10mM HEPES, 150mM NaCl, 3mM EDTA, 0.05% Tween 20) to an RU of between 12,000-14,000 over 10 minutes. […] Dissociation was performed in analysis buffer over 10 minutes. Regeneration steps between sample concentrations were performed in 3M MgCl₂, three times for 0.5 minutes. A flow rate of 25 μl/min was maintained throughout the process. Kinetics data were fit using a global fit on the analysis software provided by Biacore with reference subtraction.

[6] = target: T1, human CD38 (full length, on cells); experiment: cell-based or functional assay; remark: listed apart in the source
[7] = target: T2, recombinant human CD38 his tagged …; experiment: SPR Biacore 2000; IgG1 captured, rhCD38-his as analyte
Protocol: as §1

[8] = target: T2, recombinant human CD38 his tagged …; experiment: Octet BLI, affinity, monovalent human CD38-HIS; IgG1

- EC50 [1]: 0.734 µg/mL
- Max MFI [1]: 2510 MFI
- Kd [2]: ~1 nM
- ADCC target lysis EC50 [3]: 6.2 ng/mL
- ADCC target lysis, max. % lysis [3]: 49%
- Kd [4]: 2.38 nM
- Kd [5]: 0.62 nM
- ADCC EC50, Daudi target cells [6]: 11 ng/mL and 6.2 ng/mL
- Kd [7]: 0.62 nM
- Kd [8]: 3.38 nM
B1: aCD38-b-329 (human IgG1) (antibody, V domains shown)
VH: QLQLQESGPGLVKPSETLSLTCTVSGGSISSSDYYWGWIRQPPGKGLEWIGSIYYSGSTYYNPSLKSRVTISVDTSKNQFSLKLSSVTAADTAVYYCARGQYSSGWYAYPFDMWGQGTMVTVSS
VL: EIVLTQSPGTLSLSPGERATLSCRASQSVRSSYLAWYQQKPGQAPRLLIYGASSRATGIPDRFSGSGSGTDFTLTISRLEPEDFAVYYCQQDGAVFTFGGGTKVEIK
notes: Human IgG1
